Results: patent publication US20130177598A1, “DISCRETE SIZE AND SHAPE SPECIFIC PHARMACEUTICAL ORGANIC NANOPARTICLES” (The University of North Carolina at Chapel Hill, priority 2007, published 2013)

Test: Enzymatic activity assay of free horseradish peroxidase and PRINT particles thereof
Type: biochemical
Details: 10 ng/mL-10 mg/mL in buffer; compared with free horseradish peroxidase
Method: A standard enzymatic assay of horseradish peroxidase (reference P6782; Sigma Aldrich) was conduted on free horseradish peroxidase and PRINT particles thereof in the concentration range of 10 ng/mL-10 mg/mL in buffer. The substrates used were hydrogen peroxide and pyrogallol. […] See, FIG. 32.

## horseradish peroxidase PRINT particles: PRINT particles of horseradish peroxidase, 200 nm x 200 nm cylinders
  retention of biological structure and function after molding (enzyme activity): retains biological structure and function
